This data set has as its system K4 kissing-loop RNA reporter. The experiment in a line: apparent KD of K4 kissing-loop reporter; higher = weaker reporter binding. The note with it: Eterna round: R107. As for the experimental part:
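RNA-MaP round R107: designed RNA switches with theophylline, tryptophan, arginine or FMN aptamers are transcribed on-chip within common flanks. They are titrated with a labelled K4 kissing-loop RNA reporter in RNA-MaP buffer (100 mM Tris pH 7.5, 80 mM KCl, 4 mM MgCl2), without ligand or with the indicated ligand. Median apparent KD per design.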

Where [1] appears, read: input ligand: theophylline 20 uM.
Where [2] appears, read: input ligand: tryptophan 2.4 mM.

The source of these data is the supplement of paper PMC9170038.
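Also: bound reporter read as fluorescence of individual clusters on recovered sequencing chips by microscopy, with normalized cluster intensities fitted with a binding model.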

In the case of “UUCUGCAUCUCGGCCGCCACUCACUAGUGAUGUUAGUAAGGAGCGACUAGACAUGUCCCGUUGUUGAGGACCGGGAGAGGCUCUU [#14 K4 Tryptophan B Exclusion]”, the “apparent KD of K4 kissing-loop reporter” value was determined as 156 nM (input ligand: FMN 200 uM); 164 nM (input ligand: arginine 13.2 mM); 164 nM (input ligand: none); 191 nM under setting [1]; 170 nM under setting [2].

Turning to “UUGGAGUGAUGUUCCAUAUCUUGAGCGGAAGGAGCGGCAAAAGUGCCAGGUAGGUCGCCGCAGAAGGUACCAGUGAUGUUGGAAA [Same State Arginine A GF 3]”, the “apparent KD of K4 kissing-loop reporter” value reads like this: (input ligand: FMN 200 uM) 132 nM; (input ligand: arginine 13.2 mM) 152 nM; (input ligand: none) 155 nM; under setting [1], 156 nM; under setting [2], 109 nM.

In the case of “UUGGCAGUGAUGUUGCCAGAGUUCACCGAAGGAGCGGGUGAAAACCCAGGUAGGUCGCGGUAGCGGAGUGAUUCUCCGCGAGGGC [Same State Arginine A GF 22]”, the “apparent KD of K4 kissing-loop reporter” value came out at 90.5 nM (input ligand: FMN 200 uM); 91 nM (input ligand: arginine 13.2 mM); 86.2 nM (input ligand: none); 93.7 nM under setting [1]; 91.4 nM under setting [2].

With “UUGUAAAAGUCGGCCGCCACUCCGGGCCCUAUAAAUGGGCGCAGUGAUGUUGCGGCUAGGCCUCUGAGGACCGGGACUUUAUAGC [Xeismaarbe]”, the “apparent KD of K4 kissing-loop reporter” value turned out to be 115 nM (input ligand: FMN 200 uM); 85.1 nM (input ligand: arginine 13.2 mM); 125 nM (input ligand: none); 66.8 nM under setting [1]; 201 nM under setting [2].

On to “UUGUUUUACUGAAGGAGCGGCAAUUGAUACGUAGAUAUAGUGAUGUUAUAUAAGAUAGAGAGCCAGGUAGGUCGCAGAUUUGUUU [ExArgB.U]”, for which the “apparent KD of K4 kissing-loop reporter” value (input ligand: FMN 200 uM) worked out at 221 nM; the “apparent KD of K4 kissing-loop reporter” value (input ligand: arginine 13.2 mM) was found to be 193 nM; the “apparent KD of K4 kissing-loop reporter” value (input ligand: none) was found to be 188 nM; the “apparent KD of K4 kissing-loop reporter” value under setting [1] is 183 nM; the “apparent KD of K4 kissing-loop reporter” value under setting [2] was found to be 173 nM.

Consider “UUUAAACAUAGUGAUGUUAUGUAACAAUGACGAGGACCGGUACGGCCGCCACUCGAGAGAGAUGAUGGUAAAAUAAAUAAUUUUC [#10 K4 Tryptophan A Same State]”, for which the “apparent KD of K4 kissing-loop reporter” value by setting is: (input ligand: FMN 200 uM) 105 nM; (input ligand: arginine 13.2 mM) 124 nM; (input ligand: none) 107 nM; under setting [1], 113 nM; under setting [2], 90.6 nM.

As to “UUUAACGAGUGAUGUUCGAAAAGUAAUGGUUAGGAUAUCGUUUUUUCGAGAAGGAACCUCGAAGUGAUACGAAAGUAUCGCUUCG [FMN A 2]”, the “apparent KD of K4 kissing-loop reporter” value is, setting by setting: (input ligand: FMN 200 uM) 173 nM; (input ligand: arginine 13.2 mM) 428 nM; (input ligand: none) 264 nM; under setting [1], 466 nM; under setting [2], 240 nM.

As to “UUUAUUAAGACGGCCGCCACUGAUUCAUAGUGAUGUUAUGAUAUAAUUUUAGUGAUUUUGAUUAGCAGGACCGGGUCAAUUAUUA [JR_ExcTryptoB_Sub016]”, the “apparent KD of K4 kissing-loop reporter” value was found to be 221 nM (input ligand: FMN 200 uM); 179 nM (input ligand: arginine 13.2 mM); 196 nM (input ligand: none); 194 nM under setting [1]; 172 nM under setting [2].

Consider “UUUCGGCCCAGUGAUGUUGGGUGGAGGCGGCGAGGACCGGUACGGCCGCCACUCGGCGCACUGGCGGAGUGAUGUUUCGUGUAUA [Same State Tryptophan A GF 14]”, for which the “apparent KD of K4 kissing-loop reporter” value reads like this: (input ligand: FMN 200 uM) 697 nM; (input ligand: arginine 13.2 mM) 592 nM; (input ligand: none) 752 nM; under setting [1], 708 nM; under setting [2], 834 nM.

Consider “UUUCGUUGAAGUGAUACCAGACUUGAAAGUGAUGUUUUCCAAUAAUUUAAAUUAUUAGCUGUCCCUUGGCAGCACAGUUUAUUUA [JR_ExcTheophyB_Sub007]”, for which the “apparent KD of K4 kissing-loop reporter” value (input ligand: FMN 200 uM) came out at 255 nM; the “apparent KD of K4 kissing-loop reporter” value (input ligand: arginine 13.2 mM) turned out to be 371 nM; the “apparent KD of K4 kissing-loop reporter” value (input ligand: none) came out at 327 nM; the “apparent KD of K4 kissing-loop reporter” value under setting [1] worked out at 443 nM; the “apparent KD of K4 kissing-loop reporter” value under setting [2] came to 208 nM.

On to “UUUCGUUUCGUCUGACAUAAUUGGCUAGAAGGAGCGGUAAAAUUACCAGGUAGGUCGCUAGCCCAGUGAUGUUGGGACUAGCAUA [Onqudi]”, for which the “apparent KD of K4 kissing-loop reporter” value (input ligand: FMN 200 uM) is 148 nM; the “apparent KD of K4 kissing-loop reporter” value (input ligand: arginine 13.2 mM) was 154 nM; the “apparent KD of K4 kissing-loop reporter” value (input ligand: none) turned out to be 133 nM; the “apparent KD of K4 kissing-loop reporter” value under setting [1] was 156 nM; the “apparent KD of K4 kissing-loop reporter” value under setting [2] came to 171 nM.

For “UUUGGAUUGCGCGAAGAGUGCAAGCGCCAACGAGGACCGGUACGGCCGCCACUCGCGGAGGAGUCCAGUGAUGUUGGACGGCCCG [Laraones]”, the “apparent KD of K4 kissing-loop reporter” value reads like this: (input ligand: FMN 200 uM) 271 nM; (input ligand: arginine 13.2 mM) 276 nM; (input ligand: none) 281 nM; under setting [1], 290 nM; under setting [2], 185 nM.

Take “UUUGGUUUCUCGGCCGCCACUCGUUGGUUAUGGGCUUCAGGGAUAUAGUGAUGUUAUGUAUAGAAGAGGACCGGGAGAAGGUUUG [ExTryptoB.Dt]”: the “apparent KD of K4 kissing-loop reporter” value stood at 343 nM (input ligand: FMN 200 uM); 343 nM (input ligand: arginine 13.2 mM); 318 nM (input ligand: none); 408 nM under setting [1]; 301 nM under setting [2].

For the sequence “UUUGGUUUCUCGGCCGCCACUCGUUGUCUAUCGGCUUCAGGGAUAUAGUGAUGUUAUGUAUAGAAGAGGACCGGGAGAAGGUUCU [ExTryptoB.Dx]”, the “apparent KD of K4 kissing-loop reporter” value runs as follows: (input ligand: FMN 200 uM) 280 nM; (input ligand: arginine 13.2 mM) 267 nM; (input ligand: none) 347 nM; under setting [1], 307 nM; under setting [2], 182 nM.

“UUUGUAUAGGGAAGGAGCGUGAAUGAUAAUGAAUAUAGUGAUGUUAUAUAGAAGAAAGAAUCACAGGUAGGUCGCCCGGAGGAGG [SSArgB.I]”: the “apparent KD of K4 kissing-loop reporter” value runs as follows: (input ligand: FMN 200 uM) 198 nM; (input ligand: arginine 13.2 mM) 234 nM; (input ligand: none) 1000 nM; under setting [1], 456 nM; under setting [2], 247 nM.

On to “UUUGUAUCGGGAAGGAGCGUGAAUGAUAAUGAAUAUAGUGAUGUUAUAUAUAAGAACGAAUCACAGGUAGGUCGCCCGGAUGACU [SSArgB.O]”, for which the “apparent KD of K4 kissing-loop reporter” value by setting is: (input ligand: FMN 200 uM) 747 nM; (input ligand: arginine 13.2 mM) 555 nM; (input ligand: none) 515 nM; under setting [1], 729 nM; under setting [2], 364 nM.

In the case of “UUUGUAUCGGGAAGGAGCGUGAAUGAUAAUGGAUAUAGUGAUGUUAUAUAUAAGAACGAAUCGCAGGUAGGUCGCCCGGAUGACU [SSArgB.Q]”, the “apparent KD of K4 kissing-loop reporter” value by setting is: (input ligand: FMN 200 uM) 431 nM; (input ligand: arginine 13.2 mM) 388 nM; (input ligand: none) 413 nM; under setting [1], 400 nM; under setting [2], 252 nM.

Turning to “UUUUAAAUAUCUGAUACCAGAGAAAAUAUAUGUAGUGAUGUUAUAUACAAAAUAAUUAAGCUCCCUUGGCAGCAGUAUUAAUUUU [AstrosExc-TheB#3]”, the “apparent KD of K4 kissing-loop reporter” value is, setting by setting: (input ligand: FMN 200 uM) 612 nM; (input ligand: arginine 13.2 mM) 658 nM; (input ligand: none) 946 nM; under setting [1], 705 nM; under setting [2], 541 nM.

As for “UUUUAGGUAUCUGAUACCAGAGAAAAUAUAUGUAGUGAUGUUAUAUACAAAAUAAUUAAGCUCCCUUGGCAGCAGUUUUAAUUUU [AstrosExc-TheB#5]”, the “apparent KD of K4 kissing-loop reporter” value came to 872 nM (input ligand: FMN 200 uM); 730 nM (input ligand: arginine 13.2 mM); 902 nM (input ligand: none); 763 nM under setting [1]; 633 nM under setting [2].

For “UUUUGGUACUGAGGAUAUUCGAAGAAAUAUAGUGAUGUUAUAUAAGGAGGAGGAGGGAGGGAGGAAGGAGAAGGCAGAAGAGGAG [ExFMNB.G]”, the “apparent KD of K4 kissing-loop reporter” value (input ligand: FMN 200 uM) was 289 nM; the “apparent KD of K4 kissing-loop reporter” value (input ligand: arginine 13.2 mM) is 163 nM; the “apparent KD of K4 kissing-loop reporter” value (input ligand: none) stood at 235 nM; the “apparent KD of K4 kissing-loop reporter” value under setting [1] came out at 225 nM; the “apparent KD of K4 kissing-loop reporter” value under setting [2] stood at 266 nM.
